Laboratory results taken from paper PMC12784962, “https://orcid.org/0000-0002-3633-7823 Baral Joydeep Department of Bioscience and Biotechnology, Indian Institute of Technology Kharagpur, West Midnapore 721302, West Bengal, India”.

Biological target: the molecule itself
Experiment: cryo-EM structure; monomer to monomer within the homodimer; 5 µM mKu dimer with equimolar 40-bp linear dsDNA or short hairpin DNA, 30 min at 4°C

B1: mycobacterial Ku (mKu), Mycobacterium tuberculosis, wild type (natural protein)
chain: MRAIWTGSIAFGLVNVPVKVYSATADHDIRFHQVHAKDNGRIRYKRVCEACGEVVDYRDLARAYESGDGQMVAITDDDIASLPEERSREIEVLEFVPAADVDPMMFDRSYFLEPDSKSSKSYVLLAKTLAETDRMAIVHFTLRNKTRLAALRVKDFGKREVMMVHTLLWPDEIRDPDFPVLDQKVEIKPAELKMAGQVVDSMADDFNPDRYHDTYQEQLQELIDTKLEGGQAFTAEDQPRLLDEPEDVSDLLAKLEASVKARSKANSNVPTPP
notes: Ku protein of Mycobacterium tuberculosis, gene Rv0937c, 31 kDa; the C-terminal 46 residues are not seen in the maps; also called mKu WT; mKu-WT
binding result: binds
